Assay results: US20250361295A1
Values belong to the binder of their own block, whether it stands above or below them.

Experiments:
[1] = biological target: human LILRA6 protein (human) (UniProt Q6PI73); experiment: ELISA, LILRA6 protein
[2] = biological target: human LILRB4 (human) (UniProt Q8NHJ6); experiment: cell-based or functional assay
[3] = biological target: human LILRB4 (human) (UniProt Q8NHJ6); experiment: FACS, 293F-hLILRB4 cells
[4] = biological target: cynomolgus (Macaca fascicularis) LILRB4 (cynomolgus (Macaca fascicularis)); experiment: FACS, CHO-S-cynoLILRB4 cells

Sequence of human LILRB4 (human) (Q8NHJ6 22-448): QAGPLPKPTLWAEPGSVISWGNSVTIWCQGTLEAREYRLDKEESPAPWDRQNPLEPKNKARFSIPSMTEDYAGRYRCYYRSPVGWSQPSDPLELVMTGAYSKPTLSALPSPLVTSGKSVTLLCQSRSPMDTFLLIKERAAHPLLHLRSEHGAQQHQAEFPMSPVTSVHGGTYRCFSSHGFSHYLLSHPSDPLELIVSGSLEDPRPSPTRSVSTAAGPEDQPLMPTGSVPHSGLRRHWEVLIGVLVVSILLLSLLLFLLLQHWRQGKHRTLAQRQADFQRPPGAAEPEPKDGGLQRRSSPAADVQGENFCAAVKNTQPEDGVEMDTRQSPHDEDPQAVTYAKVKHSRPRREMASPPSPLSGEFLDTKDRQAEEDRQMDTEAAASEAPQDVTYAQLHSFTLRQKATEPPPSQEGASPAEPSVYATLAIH
Sequence of human LILRA6 protein (human) (Q6PI73 24-447 limits assumed): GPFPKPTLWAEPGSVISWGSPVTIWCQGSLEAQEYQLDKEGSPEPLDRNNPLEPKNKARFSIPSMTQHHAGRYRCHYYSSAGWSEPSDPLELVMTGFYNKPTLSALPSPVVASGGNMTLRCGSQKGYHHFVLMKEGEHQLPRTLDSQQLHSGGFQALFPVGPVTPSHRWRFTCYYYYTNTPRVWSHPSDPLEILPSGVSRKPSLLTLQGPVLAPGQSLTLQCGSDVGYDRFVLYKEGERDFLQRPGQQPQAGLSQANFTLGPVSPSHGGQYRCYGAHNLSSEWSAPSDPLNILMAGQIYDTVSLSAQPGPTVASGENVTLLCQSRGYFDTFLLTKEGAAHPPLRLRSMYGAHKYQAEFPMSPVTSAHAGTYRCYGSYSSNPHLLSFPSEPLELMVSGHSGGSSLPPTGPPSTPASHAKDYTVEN

ELISA(OD450) [1]: 1.32 OD450 | ADCP (%) at 133.3 nM, macrophages and MV-4-11 cells [2]: 6.37% | EC50 (nM), ADCC on THP-1 cells [2]: 488 nM | FcγR stimulation (TNF-α, pg/mL) [2]: 261 pg/mL | Fold change (Compared to isotype) [2]: 8.26 fold | EC50 [3]: 4.39 nM | Max MFI [3]: 30400 MFI | Max MFI [4]: 822 MFI
B1: NGM831 (antibody, V domains shown)
VH: EVQLQQSGPEVKPGASVKISCKASGYTFTDYNMDWVKQSHGKSEWIGYIYPSNGGTGYNQKFKSKATLTVDKSSNTAYMELHSLTSEDSAVYYCARVPYYDYLYYYAMDYWGQGTSVTVSS
VL: QIVLSQSPAILSASPGEKVTMACRASSSVSFMHWYQQKPGSSPQPWIYATSNLASGVPARFSGSGSGTSYSLTISRVEAEDAATYYCQQWSTNPYMYTFGGGTKLEIK
Max cell cytotoxicity (%), ADCC on THP-1 cells [2]: -6.89%

ELISA(OD450) [1]: 0.302 OD450
B2: ch48-E11-H7-B5 (antibody, V domains shown)
VH: EVQLVESGGGLVKPGGSLKLSCAASGFTFSSYAMSWVRQTPEKRLEWVASITIGDDTYYPDSVKGRFTISRDHAKNILYLQVSSLRSEDTAMYSCARGVNSYGSSYRYFDVWGAGTTVTVSS
VL: DIVMTQSHKFMSTSVGDRVSITCKASQDVSTAVAWYQQKPGQSPKLLIYWASTRHTGVPDRFTGSGSGTDYTLTISSVQAEDLALYYCQQHYSIPFTFGAGTKLEK
